# Experimental data from article PMC4102529, “FRET Based Quantification and Screening Technology Platform for the Interactions of Leukocyte Function-Associated Antigen-1 (LFA-1) with InterCellular Adhesion Molecule-1 (ICAM-1)” (PLoS ONE, 2014).
# Assays:
# [1] = target: recombinant human integrin LFA-1 (αLβ2), Alexa Fluor 488 conjugate (human) (UniProt P20701); experiment: FRET or BRET; steady-state, in solution, 96-well plate; Alexa Fluor 488-LFA-1 (donor) fixed at 100 nM, Alexa Fluor 555-D1-D2-Fc (acceptor) varied from 0 to 1.6 µM; PBS pH 7.4, 1 mM EGTA, 2 mM Mg2+; fit assuming one-to-one interaction
# Chain of recombinant human integrin LFA-1 (αLβ2), Alexa Fluor 488 conjugate (human) (P20701 26-1090, chain 1 of 2): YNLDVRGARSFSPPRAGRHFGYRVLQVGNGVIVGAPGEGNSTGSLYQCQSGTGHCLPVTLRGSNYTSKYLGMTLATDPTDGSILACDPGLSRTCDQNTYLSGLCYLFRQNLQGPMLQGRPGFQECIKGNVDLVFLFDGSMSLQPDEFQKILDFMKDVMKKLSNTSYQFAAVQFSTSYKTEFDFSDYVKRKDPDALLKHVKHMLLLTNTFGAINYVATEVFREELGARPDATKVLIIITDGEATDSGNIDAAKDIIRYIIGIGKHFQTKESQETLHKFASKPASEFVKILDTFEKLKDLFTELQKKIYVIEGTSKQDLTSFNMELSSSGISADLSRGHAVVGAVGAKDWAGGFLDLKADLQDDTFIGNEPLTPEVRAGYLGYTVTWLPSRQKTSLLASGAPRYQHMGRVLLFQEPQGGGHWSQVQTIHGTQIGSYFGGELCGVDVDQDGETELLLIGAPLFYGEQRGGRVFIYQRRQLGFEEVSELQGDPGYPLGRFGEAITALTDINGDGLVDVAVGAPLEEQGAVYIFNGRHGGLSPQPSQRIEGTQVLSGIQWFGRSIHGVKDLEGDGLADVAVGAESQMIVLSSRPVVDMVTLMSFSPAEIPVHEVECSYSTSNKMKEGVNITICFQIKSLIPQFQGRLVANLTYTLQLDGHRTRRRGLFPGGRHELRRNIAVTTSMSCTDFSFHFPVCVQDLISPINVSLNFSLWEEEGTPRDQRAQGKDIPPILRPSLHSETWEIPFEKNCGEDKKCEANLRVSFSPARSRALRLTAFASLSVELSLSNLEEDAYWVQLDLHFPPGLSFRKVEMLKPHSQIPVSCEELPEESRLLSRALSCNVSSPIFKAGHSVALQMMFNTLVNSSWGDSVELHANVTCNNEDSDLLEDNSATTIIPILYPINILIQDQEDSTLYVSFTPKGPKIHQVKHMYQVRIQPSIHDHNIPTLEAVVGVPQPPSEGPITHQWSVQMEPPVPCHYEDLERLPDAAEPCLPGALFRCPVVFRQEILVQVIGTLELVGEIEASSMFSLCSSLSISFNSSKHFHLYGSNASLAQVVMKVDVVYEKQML
# Chain of recombinant human integrin LFA-1 (αLβ2), Alexa Fluor 488 conjugate (human) (P05107 23-700, chain 2 of 2, further chain): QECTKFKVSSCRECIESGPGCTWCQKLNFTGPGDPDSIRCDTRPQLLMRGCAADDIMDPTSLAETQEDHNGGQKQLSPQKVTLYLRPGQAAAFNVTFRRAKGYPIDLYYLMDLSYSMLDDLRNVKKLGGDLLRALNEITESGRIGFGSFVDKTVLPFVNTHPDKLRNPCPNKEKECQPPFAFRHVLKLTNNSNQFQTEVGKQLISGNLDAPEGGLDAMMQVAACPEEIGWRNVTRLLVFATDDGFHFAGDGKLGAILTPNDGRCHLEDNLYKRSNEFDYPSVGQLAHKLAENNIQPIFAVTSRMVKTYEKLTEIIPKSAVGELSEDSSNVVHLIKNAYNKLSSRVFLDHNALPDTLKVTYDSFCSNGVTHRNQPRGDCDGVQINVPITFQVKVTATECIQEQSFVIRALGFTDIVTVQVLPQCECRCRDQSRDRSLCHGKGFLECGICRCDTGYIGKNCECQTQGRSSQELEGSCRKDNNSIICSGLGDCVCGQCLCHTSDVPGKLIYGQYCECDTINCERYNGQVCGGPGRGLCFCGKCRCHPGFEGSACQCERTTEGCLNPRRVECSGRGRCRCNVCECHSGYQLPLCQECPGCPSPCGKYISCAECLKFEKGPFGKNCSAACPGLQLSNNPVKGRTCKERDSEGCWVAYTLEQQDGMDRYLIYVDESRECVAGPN
# [2] = target: human recombinant ICAM-1 (D1-D2-Fc), Alexa Fluor 555 conjugate (human) (UniProt P05362); experiment: FRET or BRET; steady-state, in solution competition screening, 96-well plate; Alexa Fluor 488-LFA-1 (100 nM) mixed with peptide (0.02, 0.2, 2, 20 µM), then incubated with Alexa Fluor 555-D1-D2-Fc (100 nM) for 30 min in the dark; PBS pH 7.4, 1 mM EGTA, 2 mM Mg2+; inhibition efficiency from the FRET efficiency
# Chain of human recombinant ICAM-1 (D1-D2-Fc), Alexa Fluor 555 conjugate (human) (P05362 28-532): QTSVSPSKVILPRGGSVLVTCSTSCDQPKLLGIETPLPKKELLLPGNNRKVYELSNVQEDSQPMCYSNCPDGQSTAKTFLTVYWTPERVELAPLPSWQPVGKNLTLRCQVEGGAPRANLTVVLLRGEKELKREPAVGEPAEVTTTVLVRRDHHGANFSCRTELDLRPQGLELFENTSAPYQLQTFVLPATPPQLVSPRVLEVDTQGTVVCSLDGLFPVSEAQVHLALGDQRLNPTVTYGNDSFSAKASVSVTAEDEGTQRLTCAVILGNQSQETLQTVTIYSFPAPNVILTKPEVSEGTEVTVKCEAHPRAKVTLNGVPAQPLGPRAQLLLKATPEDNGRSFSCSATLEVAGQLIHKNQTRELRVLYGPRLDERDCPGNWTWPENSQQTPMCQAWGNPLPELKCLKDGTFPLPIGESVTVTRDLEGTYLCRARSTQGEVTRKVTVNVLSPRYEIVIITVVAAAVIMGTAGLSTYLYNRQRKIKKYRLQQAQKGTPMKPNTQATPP
# [3] = target: human recombinant ICAM-1 (D1-D2-Fc), Alexa Fluor 555 conjugate (human) (UniProt P05362); experiment: FRET or BRET; steady-state, in solution; emission spectra at 470 nm excitation of mixtures with Alexa Fluor 555-D1-D2-Fc constant at 100 nM and Alexa Fluor 488-LFA-1 at 25-300 nM (A/D 8.40-0.70); incubated 30 minutes at room temperature; FRET efficiency by Eq. (3)
substance,measurement,setting,value
"human recombinant ICAM-1 (D1-D2-Fc), Alexa Fluor 555 conjugate (from UniProt P05362 28-532) (Fc fusion)",Kd,[1],17.9 nM
CD11a(441–465) peptide,inhibition efficiency of the LFA-1/D1-D2-Fc interaction at 0.02 µM peptide,[2],20.9%
same,inhibition efficiency of the LFA-1/D1-D2-Fc interaction at 0.2 µM peptide,[2],37.1%
same,inhibition efficiency of the LFA-1/D1-D2-Fc interaction at 2 µM peptide,[2],46.9%
same,inhibition efficiency of the LFA-1/D1-D2-Fc interaction at 20 µM peptide,[2],62%
"recombinant human integrin LFA-1 (αLβ2), Alexa Fluor 488 conjugate (from UniProt P20701 26-1090; P05107 23-700) (complex)",FRET efficiency (%) at A/D ratio 2.12 (100 nM LFA-1),[3],53.5%
